Laboratory results: patent US20200377593A1 (Innovent, published 2020)
Residue numbers refer to the chain shown, from its start.

T1: mouse CD47-Fc (mouse, UniProt Q61735 19-140, limits assumed)
T1 construct: not shown: Fc part; not described
T1 sequence (looked up): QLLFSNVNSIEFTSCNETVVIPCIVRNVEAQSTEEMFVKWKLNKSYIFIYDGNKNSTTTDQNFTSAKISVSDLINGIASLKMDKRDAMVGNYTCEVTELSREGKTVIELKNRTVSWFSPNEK

B1: ADI-26660 (antibody, human IgG1, kappa, V domains shown)
VH: QVQLQESGPGLVKPSETLSLTCTVSGGSISSYYWSWIRQPPGKGLEWIGSIYYSGSTNYNPSLKSRVTISVDTSKNQFSLKLSSVTAADTAVYYCARKQKHFDIWGQGTMVTVSS
VL: DIQMTQSPSSVSASVGDRVTITCRASQGISSWLAWYQQKPGKAPKLLIYAASSLQSGVPSRFSGSGSGTDFTLTISSLQPEDFATYYCQQVNHHPWTFGGGTKVEIKR
notes: Full-length IgG1 kappa expressed in yeast, purified by Protein A
B2: ADI-26655 (antibody, human IgG1, kappa, V domains shown)
VH: B1 VH with S50Y, N58T, Q99K, K100R, H101F, I104L, M110T
VL: not shown
notes: as for B1
B3: ADI-29342 (antibody, human IgG1, kappa, V domains shown)
VH: QVQLQESGPGLVKPSETLSLTCTVSGGSIMHYYWSWIRQPPGKGLEWIGYIYYSGSTNYNPSLKSRVTISVDTSKNQFSLKLSSVTAADTAVYYCARGKTGSAAWGQGTLVTVSS
VL: B1 VL with S31R, V91T, N92V, H93S, H94F, W96I
notes: as for B1
B4: ADI-29338 (antibody, human IgG1, kappa, V domains shown)
VH: B1 VH with S50T, N58R, K98G, Q99K, K100S, H101A, I104P, M110L
VL: DIQMTQSPSSVSASVGDRVTITCRASQGISRWLAWYQQKPGKAPKLLIYAASSLQSGVPSRFSGSGSGTDFTLTISSLQPEDFATYYCQQADLHPPLTFGGGTKVEIKR
notes: as for B1
B5: ADI-29347 (antibody, human IgG1, kappa, V domains shown)
VH: B3 VH with M30A, H31N, I51T, Y53F
VL: B1 VL with S31R, V91T, N92V, H93S, H94F, W96I
notes: as for B1
B6: ADI-29350 (antibody, human IgG1, kappa, V domains shown)
VH: B3 VH with M30E, S56F, N58E, G98K, T100R, G101F, S102F, A103D, A104L, L110T
VL: not shown
notes: as for B1
B7: ADI-29345 (antibody, human IgG1, kappa, V domains shown)
VH: B3 VH with M30S, S56V, N58T, A103T
VL: B1 VL with S31R, V91T, N92V, H93S, H94F, W96I
notes: as for B1
B8: ADI-29337 (antibody, human IgG1, kappa, V domains shown)
VH: B3 VH with M30N, Y50A, N58R, T100S, G101A, S102F, A103D, A104P
VL: B4 VL
notes: as for B1
B9: Hu5F9 (antibody, V domains shown)
VH: QVQLVQSGAEVKKPGASVKVSCKASGYTFTNYNMHWVRQAPGQRLEWMGTIYPGNDDTSYNQKFKDRVTITADTSASTAYMELSSLRSEDTAVYYCARGGYRAMDYWGQGTLVTVSS
VL: DIVMTQSPLSLPVTPGEPASISCRSSQSIVYSNGNTYLGWYLQKPGQSPQLLIYKVSNRFSGVPDRFSGSGSGTDFTLKISRVEAEDVGVYYCFQGSHVPYTFGQGTKLEIKR
B10: ADI-29337 Fab fragment (Fab, V domains shown)
VH: B3 VH with M30N, Y50A, N58R, T100S, G101A, S102F, A103D, A104P
VL: B4 VL
B11: ADI-26655 Fab fragment (Fab, V domains shown)
VH: B1 VH with S50Y, N58T, Q99K, K100R, H101F, I104L, M110T
VL: not shown
notes: also called ADI-26655 (Fab form)
B12: ADI-26660 Fab fragment (Fab, V domains shown)
VH: B1 VH
VL: B1 VL
notes: also called ADI-26660 (Fab form)
B13: ADI-29342 Fab fragment (Fab, V domains shown)
VH: B3 VH
VL: B1 VL with S31R, V91T, N92V, H93S, H94F, W96I
B14: ADI-29350 Fab fragment (Fab, V domains shown)
VH: B3 VH with M30E, S56F, N58E, G98K, T100R, G101F, S102F, A103D, A104L, L110T
VL: not shown
notes: also called ADI-29350 (Fab form)
B15: ADI-29347 Fab fragment (Fab, V domains shown)
VH: B3 VH with M30A, H31N, I51T, Y53F
VL: B1 VL with S31R, V91T, N92V, H93S, H94F, W96I
notes: also called ADI-29347 (Fab form)
B16: ADI-29345 Fab fragment (Fab, V domains shown)
VH: B3 VH with M30S, S56V, N58T, A103T
VL: B1 VL with S31R, V91T, N92V, H93S, H94F, W96I

The binders below were run against T2, human CD47 overexpressed on CHO cells (human, UniProt Q08722 19-292) (assay: flow cytometry competition on CHO-hCD47 cells against 200 nM mouse Fc-labeled SIRPα).
T2 construct: CHO cells transfected with pCHO1.0 carrying human CD47 cDNA (Sino Biological); also called hCD47; CHO-hCD47 cells

Row | IC50 [nM] | Binder
1 | 16.7 | B1
2 | 38.1 | B2
3 | 2.69 | B3
4 | 3.14 | B4
5 | 2.16 | B5
6 | 10.5 | B6
7 | 2.75 | B7

These binders were tested against T1, mouse CD47-Fc (assay: BLI (ForteBio), antibody on AHQ tip, mouse CD47-Fc in solution, bivalent).

Row | binding result | Binder
8 | no binding (tested: 100 nM) | B1
9 | no binding (tested: 100 nM) | B2
10 | no binding (tested: 100 nM) | B3
11 | no binding (tested: 100 nM) | B5
12 | no binding (tested: 100 nM) | B6
13 | no binding (tested: 100 nM) | B7

Each binder was assayed against T3, cynomolgus monkey CD47-Fc (cynomolgus monkey, UniProt A0A2K5X523 19-139) (assay: BLI (ForteBio), antibody on AHQ tip, cynomolgus monkey CD47-Fc in solution 100 nM, bivalent).
T3 construct: not shown: Fc part; not described

Row | Kd [nM] | Binder
14 | 0.554 | B8
15 | 0.562 | B5

These binders were tested against T1, mouse CD47-Fc (assay: BLI (ForteBio), antibody on AHQ tip, mouse CD47-Fc in solution 100 nM, bivalent).

Row | Kd [nM] | Binder
16 | 18.7 | B8
17 | 12.7 | B9

Each binder was assayed against T4, human CD47-Fc (human, UniProt Q08722 19-139) (assay: BLI (ForteBio), antibody on AHQ tip, human CD47-Fc in solution 100 nM, bivalent).
T4 construct: also called hCD47; not shown: Fc part

Row | Kd [nM] | Binder
18 | 0.404 | B8
19 | 1.35 | B1
20 | 0.849 | B2
21 | 0.486 | B3
22 | 0.71 | B5
23 | 0.451 | B6
24 | 0.403 | B7

Each binder was assayed against T4, human CD47-Fc (assay: BLI (ForteBio), human CD47-Fc on AHQ tip, Fab in solution 100 nM, monovalent).

Row | Kd [nM] | Binder
25 | 2.2 | B10
26 | 46.3 | B11
27 | 130 | B12
28 | 11.7 | B13
29 | 5.04 | B14
30 | 11.3 | B15
31 | 2.89 | B16

These binders were tested against T2, human CD47 overexpressed on CHO cells (assay: flow cytometry on CHO-hCD47 cells, PE anti-human IgG, MFI curve).

Row | EC50 [nM] | Binder
32 | 5.74 | B1
33 | 7.65 | B2
34 | 2.74 | B3
35 | 1.57 | B4
36 | 1.81 | B5
37 | 4.42 | B6
38 | 1.5 | B7
